Molecular target: the molecule itself
Assay: cryo-EM structure; dual motor condition (surface-anchored myosin-5 and myosin-6, 1 μM ATP) on holey carbon grids; 0.6 μM F-actin, 1 μM α-catenin ABD applied in Motility Buffer (20 mM MOPS pH 7.4, 5 mM MgCl2, 0.1 mM EGTA, 1 mM DTT) for 30 s, 25 °C; sub-saturating α-catenin; consensus and 3DVA-sorted reconstructions

B1: C-terminal actin-binding domain (ABD) of human α-catenin (AA 664-906) (domain or fragment, UniProt P35221 664-906, looked up)
chain: IAGQSARAIMAQLPQEQKAKIAEQVASFQEEKSKLDAEVSKWDDSGNDIIVLAKQMCMIMMEMTDFTRGKGPLKNTSDVISAAKKIAEAGSRMDKLGRTIADHCPDSACKQDLLAYLQRIALYCHQLNICSKVKAEVQNLGGELVVSGVDSAMSLIQAAKNLMNAVVQTVKASYVASTKYQKSQGMASLNLPAVSWKMKAPEKKPLVKREKQDETQTKIKRASQKKHVNPVQALSEFKAMDSI
notes: Tags were removed with TEV protease; also called α-catenin ABD; αE-catenin ABD; source: E. coli Rosetta2(DE3), purified (Ni-NTA, TEV cleavage, anion exchange, size exclusion); not shown: 6XHis, N-terminal, cleaved; strep tag, N-terminal, cleaved
  binding result: binds
